# Measurements published in patent US20230272011A1 (AVACTA LIFE SCIENCES, published 2023).
# Experiments:
# [1] = molecular target: T1, human serum albumin (human, UniProt P02768 25-609); test: binding ELISA on coated albumin, pH 6.0, panel 'HSA Binding at pH 6.0'
# T1 construct: mature; Bought protein; biotinylated in the Octet and HTRF assays; also called HSA; HuSA
# Procedure: (§1) Briefly, ELISA was performed as follow:
# (§2) Human (Sigma-Aldrich); Cynomolgus and Mouse (Abcam); Equine (Abcam); Canine (Abcam); Mouse (Sigma-Aldrich); Rabbit (Sigma-Aldrich); Porcine (Sigma-Aldrich);, and Rat (Sigma-Aldrich) serum albumin were coated overnight on 96 well plates (Corning Costar) at 1 μg/ml in PBS at the appropriate pH (pH 6.0 or 7.4). Plates were saturated using 5% Casein (Sigma-Aldrich) buffer in PBS. […] Plates were then washed and AFFIMER® proteins were detected using a biotinylated polyclonal antibody anti-Cystatin (R&D System) for 90 minutes. After washing, streptavidin-HRP (Thermo Fisher Scientific) was added and incubated for 30 minutes.
# [2] = molecular target: equine serum albumin (equine, UniProt P35747 25-607); test: binding ELISA on coated albumin, pH 7.4, panel 'Equine SA Binding at pH 7.4' (Table 6 gives NA for this pair)
# Procedure: as §1, §2
# [3] = molecular target: T2, canine serum albumin (canine, UniProt P49822 25-608); test: binding ELISA on coated albumin, pH 6.0, panel 'Canine SA Binding at pH 6.0'
# Procedure: as §1, §2
# [4] = molecular target: T1, human serum albumin; test: SPR (Biacore T200), albumin amine-coupled to CM5, Affimer analyte, pH 7.4
# Procedure: (§3) Affinities for mouse, human, and cynomolgus serum were also measured at pH 7.4 for four (4) AFFIMER® binders using surface plasmon resonance (SPR) (FIG. 5, Table 5). […] A concentration titration of AFFIMER® monomers was run as analyte at a flow rate of 30 μl/min or 60 μl/min. Fc2-1, Fc3-1 and Fc4-1 kinetic data was blank subtracted and fit to a 1:1 Langmuir binding model (BIAcore Evalution software; GE) to calculate KD values.
# [5] = molecular target: T3, cynomolgus serum albumin (cynomolgus); test: as above
# T3 construct: also called CSA; cyno serum albumin
# Procedure: as §3
# [6] = molecular target: T4, mouse serum albumin (mouse, UniProt P07724 25-608); test: as above
# T4 construct: also called MSA
# Procedure: as §3
# [7] = molecular target: T1, human serum albumin; test: Biacore, immobilised HSA, running buffer pH 6.0
# Source text: (§4) […] Fc2-1, Fc3-1 and Fc4-1 kinetic data was blank subtracted and fit to a 1:1 Langmuir binding model (BIAcore Evalution software; GE) to calculate KD values.
# [8] = molecular target: T4, mouse serum albumin; test: Biacore, immobilised MSA, pH 6.0
# Source text: as §4
# [9] = molecular target: T3, cynomolgus serum albumin; test: binding ELISA on coated albumin, pH 6.0, panel 'CSA Binding at pH 6.0'
# Procedure: as §1, §2
# [10] = molecular target: T1, human serum albumin; test: BLI (Octet), biotinylated albumin on SA sensor, pH 6.0
# Procedure: (§5) Biotinylated antigen was captured onto SA sensors at 1 μg/ml for 600 seconds in a buffer comprising PBS-T (0.01% Tween 20)+1% casein at either pH 6.0 or 7.4. Association was carried out for 300 seconds and dissociation for 600 seconds, and regeneration was performed using 10 mM glycine pH 1.5 (GE Healthcare) for 3×5 seconds. All steps were carried out at 1000 rpm and 25° C. Purified AFFIMER® polypeptide in two-fold serial dilutions was analyzed at a starting concentration of approximately 10× K_{D value}. Kinetics analyses were carried out using the Octet data analysis software, subtracting the reference sensor (loaded with antigen), aligning the Y-axis to baseline, and using inter-step correction to align association to dissociation. Savitzky-Golay filtering was applied and the data processed. Analysis of the data was carried out with a 1:1 model, global fit, Rₘₐₓ unlinked by sensor.
# [11] = molecular target: T3, cynomolgus serum albumin; test: as above
# Procedure: as §5
# [12] = molecular target: T4, mouse serum albumin; test: as above
# Procedure: as §5
# [13] = molecular target: T1, human serum albumin; test: BLI (Octet), biotinylated albumin on SA sensor, pH 7.4
# Procedure: as §5
# [14] = molecular target: T3, cynomolgus serum albumin; test: as above
# Procedure: as §5
# [15] = molecular target: T4, mouse serum albumin; test: as above
# Procedure: as §5
# [16] = molecular target: T1, human serum albumin; test: Biacore, immobilised HSA, running buffer pH 7.4
# Procedure: as §3
# [17] = molecular target: T5, rat serum albumin (rat, UniProt P02770 25-608); test: binding ELISA on coated albumin, pH 6.0, panel 'Rat SA Binding at pH 6.0'
# Procedure: as §1, §2
# [18] = molecular target: rabbit serum albumin (rabbit, UniProt P49065 25-608); test: binding ELISA, coated albumin, pH 7.4
# Procedure: as §1, §2
# [19] = molecular target: T1, human serum albumin; test: binding ELISA, coated albumin, pH 7.4
# Procedure: as §1, §2
# [20] = molecular target: T3, cynomolgus serum albumin; test: binding ELISA, coated albumin, pH 7.4
# Procedure: as §1, §2
# [21] = molecular target: T5, rat serum albumin; test: binding ELISA, coated albumin, pH 7.4
# Procedure: as §1, §2
# [22] = molecular target: T2, canine serum albumin; test: binding ELISA, coated albumin, pH 7.4
# Procedure: as §1, §2
# [23] = molecular target: porcine serum albumin (porcine, UniProt P08835 25-607); test: binding ELISA, coated albumin, pH 7.4
# Procedure: as §1, §2
# [24] = molecular target: T4, mouse serum albumin; test: binding ELISA on coated MSA, pH 7.4
# Procedure: (§6) After saturation with 5% PBS Casein pH 7.5, plates were washed and a dilution of AFFIMER® trimers or controls were incubated on the plate for 90 minutes. Plates were then washed, and a biotinylated polyclonal antibody anti-cystatin A (R&D Systems) was added for 1 hour. Plates were washed and AFFIMER® ILFs were detected using streptavidin-HRP. After a last washing step, TMB was added for the development of the experiment, and the plates were read at 450 nm.
# [25] = molecular target: T6, human PD-L1-Fc (R&D Systems) chimeric protein (human, UniProt Q9NZQ7 19-239); test: Biacore single cycle kinetics on human PD-L1 Fc
# T6 construct: Bought reagent; also called rhPD-L1-Fc; huPD-L1; Fc part of the bought chimera not given, not described
# [26] = molecular target: T1, human serum albumin; test: binding ELISA on coated HSA, pH 7.4
# Procedure: as §6
# [27] = molecular target: T1, human serum albumin; test: Biacore sensorgram on serum albumin (HSA)
# T6 sequence (Q9NZQ7 19-239, change not shown): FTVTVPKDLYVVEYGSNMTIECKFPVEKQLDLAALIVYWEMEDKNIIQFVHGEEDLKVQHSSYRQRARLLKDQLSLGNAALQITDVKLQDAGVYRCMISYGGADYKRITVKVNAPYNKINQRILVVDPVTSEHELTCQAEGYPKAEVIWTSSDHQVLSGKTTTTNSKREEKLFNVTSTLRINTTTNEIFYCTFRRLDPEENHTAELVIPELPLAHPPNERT
# T3 sequence (A2V9Z4 25-608): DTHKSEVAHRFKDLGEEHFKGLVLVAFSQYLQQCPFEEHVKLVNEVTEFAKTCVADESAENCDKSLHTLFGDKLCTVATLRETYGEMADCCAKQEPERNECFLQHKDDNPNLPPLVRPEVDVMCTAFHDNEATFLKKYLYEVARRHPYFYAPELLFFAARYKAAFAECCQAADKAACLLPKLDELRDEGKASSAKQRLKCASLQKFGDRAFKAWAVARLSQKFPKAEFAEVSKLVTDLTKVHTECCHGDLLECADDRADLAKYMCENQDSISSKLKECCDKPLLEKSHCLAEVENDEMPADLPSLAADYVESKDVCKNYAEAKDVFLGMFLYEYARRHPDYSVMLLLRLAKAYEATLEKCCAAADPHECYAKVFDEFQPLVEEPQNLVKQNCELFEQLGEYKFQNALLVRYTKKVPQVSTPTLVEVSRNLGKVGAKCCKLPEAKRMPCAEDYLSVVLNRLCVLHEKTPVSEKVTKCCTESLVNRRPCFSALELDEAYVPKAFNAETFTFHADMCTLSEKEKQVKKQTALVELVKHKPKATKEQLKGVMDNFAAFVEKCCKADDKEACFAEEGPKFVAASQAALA
# T4 sequence (P07724 25-608 limits assumed): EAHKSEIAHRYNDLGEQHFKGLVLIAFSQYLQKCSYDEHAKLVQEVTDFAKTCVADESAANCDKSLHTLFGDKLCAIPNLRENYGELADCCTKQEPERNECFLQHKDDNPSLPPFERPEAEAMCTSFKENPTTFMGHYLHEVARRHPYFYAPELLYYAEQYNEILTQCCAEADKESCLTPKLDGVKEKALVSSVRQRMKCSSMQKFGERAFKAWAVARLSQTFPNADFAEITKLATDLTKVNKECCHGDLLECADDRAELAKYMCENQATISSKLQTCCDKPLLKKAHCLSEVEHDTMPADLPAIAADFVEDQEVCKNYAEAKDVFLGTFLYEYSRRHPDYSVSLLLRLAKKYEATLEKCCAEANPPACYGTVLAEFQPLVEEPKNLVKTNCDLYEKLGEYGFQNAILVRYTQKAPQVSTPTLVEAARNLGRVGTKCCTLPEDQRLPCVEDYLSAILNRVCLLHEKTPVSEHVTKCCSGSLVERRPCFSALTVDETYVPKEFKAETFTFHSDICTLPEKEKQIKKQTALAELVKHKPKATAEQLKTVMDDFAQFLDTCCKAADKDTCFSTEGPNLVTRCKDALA
# T5 sequence (P02770 25-608 limits assumed): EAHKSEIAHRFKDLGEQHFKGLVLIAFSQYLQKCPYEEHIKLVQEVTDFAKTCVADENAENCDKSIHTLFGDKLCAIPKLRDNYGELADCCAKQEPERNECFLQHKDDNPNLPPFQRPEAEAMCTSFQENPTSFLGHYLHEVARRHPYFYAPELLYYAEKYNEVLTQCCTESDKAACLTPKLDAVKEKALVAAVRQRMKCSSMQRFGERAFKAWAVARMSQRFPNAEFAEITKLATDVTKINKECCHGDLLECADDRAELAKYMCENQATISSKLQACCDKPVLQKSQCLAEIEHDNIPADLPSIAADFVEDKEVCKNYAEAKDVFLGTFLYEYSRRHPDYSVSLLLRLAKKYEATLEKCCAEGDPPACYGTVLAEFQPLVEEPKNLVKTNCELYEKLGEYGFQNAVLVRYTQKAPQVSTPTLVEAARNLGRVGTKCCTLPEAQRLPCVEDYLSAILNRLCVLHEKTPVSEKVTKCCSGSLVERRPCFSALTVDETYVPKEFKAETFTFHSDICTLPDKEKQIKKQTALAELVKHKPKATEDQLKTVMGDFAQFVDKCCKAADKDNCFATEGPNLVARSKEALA
# T2 sequence (P49822 25-608 limits assumed): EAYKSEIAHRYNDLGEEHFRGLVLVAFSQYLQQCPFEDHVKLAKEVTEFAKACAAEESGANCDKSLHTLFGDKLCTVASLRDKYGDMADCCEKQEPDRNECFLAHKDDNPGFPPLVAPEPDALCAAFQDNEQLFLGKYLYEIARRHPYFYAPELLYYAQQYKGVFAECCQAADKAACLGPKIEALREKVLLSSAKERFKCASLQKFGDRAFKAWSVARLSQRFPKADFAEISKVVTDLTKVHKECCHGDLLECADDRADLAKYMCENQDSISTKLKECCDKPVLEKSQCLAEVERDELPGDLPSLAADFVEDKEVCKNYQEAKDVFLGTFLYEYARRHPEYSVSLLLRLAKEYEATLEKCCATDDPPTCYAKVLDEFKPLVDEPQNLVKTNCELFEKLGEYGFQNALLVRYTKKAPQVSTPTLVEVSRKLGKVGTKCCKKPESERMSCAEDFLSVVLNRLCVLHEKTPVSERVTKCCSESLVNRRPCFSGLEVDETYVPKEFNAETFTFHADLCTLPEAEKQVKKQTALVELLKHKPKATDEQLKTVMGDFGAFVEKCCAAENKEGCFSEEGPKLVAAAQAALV
# Chain of equine serum albumin (P35747 25-607 limits assumed): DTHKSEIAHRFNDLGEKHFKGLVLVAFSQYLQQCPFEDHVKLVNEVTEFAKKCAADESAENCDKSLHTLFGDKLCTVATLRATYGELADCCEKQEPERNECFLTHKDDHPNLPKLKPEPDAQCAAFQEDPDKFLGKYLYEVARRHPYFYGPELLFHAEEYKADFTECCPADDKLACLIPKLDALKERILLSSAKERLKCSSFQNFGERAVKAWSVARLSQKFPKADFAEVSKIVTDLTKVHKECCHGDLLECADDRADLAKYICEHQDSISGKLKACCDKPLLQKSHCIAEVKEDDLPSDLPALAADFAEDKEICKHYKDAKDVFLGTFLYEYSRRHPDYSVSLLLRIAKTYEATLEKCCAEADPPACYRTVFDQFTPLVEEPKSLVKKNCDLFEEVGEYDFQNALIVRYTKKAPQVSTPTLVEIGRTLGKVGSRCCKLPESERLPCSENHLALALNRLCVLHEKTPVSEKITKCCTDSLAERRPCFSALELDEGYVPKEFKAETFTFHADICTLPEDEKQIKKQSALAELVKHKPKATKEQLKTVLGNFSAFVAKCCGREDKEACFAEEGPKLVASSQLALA
# Chain of porcine serum albumin (P08835 25-607 limits assumed): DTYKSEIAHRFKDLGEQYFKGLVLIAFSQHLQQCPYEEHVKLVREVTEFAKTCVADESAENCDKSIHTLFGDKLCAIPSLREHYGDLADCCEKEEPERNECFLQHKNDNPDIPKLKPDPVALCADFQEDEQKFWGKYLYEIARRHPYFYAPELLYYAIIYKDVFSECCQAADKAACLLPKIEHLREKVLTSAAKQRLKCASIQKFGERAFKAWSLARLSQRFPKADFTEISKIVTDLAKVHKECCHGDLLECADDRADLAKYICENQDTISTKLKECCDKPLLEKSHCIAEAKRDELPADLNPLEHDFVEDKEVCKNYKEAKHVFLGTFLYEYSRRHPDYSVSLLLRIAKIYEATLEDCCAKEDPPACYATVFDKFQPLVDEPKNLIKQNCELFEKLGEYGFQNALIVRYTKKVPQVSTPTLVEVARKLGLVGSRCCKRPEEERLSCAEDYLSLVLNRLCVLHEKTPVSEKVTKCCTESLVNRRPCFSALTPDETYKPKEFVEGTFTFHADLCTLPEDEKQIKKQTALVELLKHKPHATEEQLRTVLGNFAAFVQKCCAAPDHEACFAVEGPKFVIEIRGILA
# Chain of rabbit serum albumin (P49065 25-608 limits assumed): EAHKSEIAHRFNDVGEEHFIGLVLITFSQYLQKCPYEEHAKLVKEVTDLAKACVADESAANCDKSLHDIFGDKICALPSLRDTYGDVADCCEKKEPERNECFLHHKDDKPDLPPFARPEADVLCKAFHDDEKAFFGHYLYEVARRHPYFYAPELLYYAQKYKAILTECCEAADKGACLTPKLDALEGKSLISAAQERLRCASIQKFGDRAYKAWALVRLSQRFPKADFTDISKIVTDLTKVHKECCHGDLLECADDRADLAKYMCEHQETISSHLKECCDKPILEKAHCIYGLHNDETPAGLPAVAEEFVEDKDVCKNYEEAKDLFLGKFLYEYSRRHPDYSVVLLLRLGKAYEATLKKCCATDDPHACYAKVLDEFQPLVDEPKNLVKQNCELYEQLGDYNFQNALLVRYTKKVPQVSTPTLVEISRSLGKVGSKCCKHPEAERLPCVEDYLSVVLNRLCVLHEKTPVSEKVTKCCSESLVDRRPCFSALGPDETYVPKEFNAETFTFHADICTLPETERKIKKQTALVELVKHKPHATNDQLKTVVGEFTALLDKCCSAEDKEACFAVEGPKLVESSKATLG
binder,measurement,setting,value
"HSA-18 (designed binder, also called HSA-18 monomer) MIPRGLSEAKPATPEIQEIVDKVKPQLEEKTNETYGKLEAVQYKTQVLADWWQAKWPHSTNYYIKVRAGDNKYMHLKVFNGPYKVHQSSGGADRVLTGYQVDKNKDDELTGFHHHHHH",EC50 (read off the curve),[1],~0.2 nM
same,binding result,[2],binds
same,EC50 (read off the curve),[3],~10 nM
same,Kd,[4],146 nM
same,koff,[4],0.00789 s⁻¹
same,kon,[4],54100 M⁻¹ s⁻¹
same,Kd,[5],542 nM
same,koff,[5],0.0261 s⁻¹
same,kon,[5],48300 M⁻¹ s⁻¹
same,Kd,[6],2180 nM
same,koff,[6],0.0742 s⁻¹
same,kon,[6],34100 M⁻¹ s⁻¹
same,Kd,[7],152 nM
same,koff,[7],0.0122 s⁻¹
same,kon,[7],80000 M⁻¹ s⁻¹
same,Kd,[8],49.4 nM
same,koff,[8],0.0298 s⁻¹
same,kon,[8],602000 M⁻¹ s⁻¹
same,EC50 (read off the curve),[9],~0.1 nM
same,Kd,[10],17.9 nM
same,Kd,[11],68.7 nM
same,Kd,[12],618 nM
same,Kd,[13],36.1 nM
same,Kd,[14],106 nM
same,Kd,[15],981 nM
same,Kd,[16],109 nM
same,koff,[16],0.0078 s⁻¹
same,kon,[16],71400 M⁻¹ s⁻¹
same,EC50 (read off the curve),[17],~3 nM
same,EC50,[18],847 nM
same,EC50,[19],1.41 nM
same,EC50,[20],7.14 nM
same,EC50,[21],89.4 nM
same,EC50,[22],96.5 nM
same,EC50,[23],615 nM
AVA04-251 XT61 (designed binder) MIPRGLSEAKPATPEIQEIVDKVKPQLEEKTNETYGKLEAVQYKTQVLAREGRQDWVLSTNYYIKVRAGDNKYMHLKVFNGPWVPFPHQQLADRVLTGYQVDKNKDDELTGFAEAAAKEAAAKEAAAKEAAAKEAAAKEAAAKMIPRGLSEAKPATPEIQEIVDKVKPQLEEKTNETYGKLEAVQYKTQVLADWWQAKWPHSTNYYIKVRAGDNKYMHLKVFNGPYKVHQSSGGADRVLTGYQVDKNKDDELTGFAEAAAKEAAAKEAAAKEAAAKEAAAKEAAAKMIPRGLSEAKPATPEIQEIVDKVKPQLEEKTNETYGKLEAVQYKTQVLAREGRQDWVLSTNYYIKVRAGDNKYMHLKVFNGPWVPFPHQQLADRVLTGYQVDKNKDDELTGFHHHHHH,EC50,[24],60.8 nM
same,Kd,[7],31.1 nM
same,koff,[7],0.00308 s⁻¹
same,kon,[7],98800 M⁻¹ s⁻¹
same,Kd,[8],113 nM
same,koff,[8],0.0337 s⁻¹
same,kon,[8],297000 M⁻¹ s⁻¹
same,Kd,[25],0.298 nM
same,koff,[25],0.000159 s⁻¹
same,kon,[25],534000 M⁻¹ s⁻¹
same,EC50,[26],8.8 nM
same,Kd,[16],325 nM
same,koff,[16],0.00758 s⁻¹
same,kon,[16],23300 M⁻¹ s⁻¹
"HSA-41 loop 4 deletion (designed binder, also called loop 4 knockout mutant (deletion)) MIPRGLSEAKPATPEIQEIVDKVKPQLEEKTNETYGKLEAVQYKTQVLANFFQRRWPGSTNYYIKVRAGDNKYMHLKVFNGPADRVLTGYQVDKNKDDELTGFHHHHHH",binding result,[27],no binding
"HSA-41 x9 glycine loops (designed binder, also called HSA-41 loop 4 replaced with 9 glycine residues; loop 4 knockout mutant) MIPRGLSEAKPATPEIQEIVDKVKPQLEEKTNETYGKLEAVQYKTQVLANFFQRRWPGSTNYYIKVRAGDNKYMHLKVFNGPGGGGGGGGGADRVLTGYQVDKNKDDELTGFHHHHHH",binding result,[27],no binding
AVA04-251 XT60 (designed binder) MIPRGLSEAKPATPEIQEIVDKVKPQLEEKTNETYGKLEAVQYKTQVLAREGRQDWVLSTNYYIKVRAGDNKYMHLKVFNGPWVPFPHQQLADRVLTGYQVDKNKDDELTGFAEAAAKEAAAKEAAAKEAAAKEAAAKEAAAKMIPRGLSEAKPATPEIQEIVDKVKPQLEEKTNETYGKLEAVQYKTQVLAREGRQDWVLSTNYYIKVRAGDNKYMHLKVFNGPWVPFPHQQLADRVLTGYQVDKNKDDELTGFAEAAAKEAAAKEAAAKEAAAKEAAAKEAAAKMIPRGLSEAKPATPEIQEIVDKVKPQLEEKTNETYGKLEAVQYKTQVLADWWQAKWPHSTNYYIKVRAGDNKYMHLKVFNGPYKVHQSSGGADRVLTGYQVDKNKDDELTGFHHHHHH,EC50,[24],134 nM
same,Kd,[7],67.8 nM
same,koff,[7],0.00339 s⁻¹
same,kon,[7],50100 M⁻¹ s⁻¹
same,Kd,[8],108 nM
same,koff,[8],0.0326 s⁻¹
same,kon,[8],301000 M⁻¹ s⁻¹
same,Kd,[25],0.558 nM
same,koff,[25],0.000331 s⁻¹
same,kon,[25],594000 M⁻¹ s⁻¹
same,EC50,[26],5.7 nM
same,Kd,[16],661 nM
same,koff,[16],0.00846 s⁻¹
same,kon,[16],12800 M⁻¹ s⁻¹
